# Legend:
# Type in all cases: physicochemical
# [1] = Dissolution test of peptide sample (pH raised stepwise until dissolved)
# Experimental: For example, a simple dissolution test can be used to evaluate the solubility characteristics of a peptide sample. The test is conveniently carried out at a temperature in the range of from about 20° C. to about 27° C., preferably about 25° C. From about 0.1 to about 0.3 grams of peptide is combined with about 1 to about 3 ml of an aqueous medium. The medium may be deionized water. In the case of T-20 or T-1249, these peptides are mildly acetic. Consequently, the medium optionally may include some initial amount base, e.g., about 17 mM Na2CO3 or the like, to provide a suitable initial pH. […] The mixture is rapidly stirred for 5 to 10 minutes between additional increments. Solids adhering to the sides of the testing vessel should be re-suspended. Rapid mixing should be maintained throughout. Results include observations regarding the clarity of the mixture, time required for dissolution, concentration and amount of caustic used, final pH upon dissolution (if this occurs below pH 9), and the like.
# For purposes of the invention, peptides such as T-20, T-1249, and GLP-1, as well as counterparts of these, may be deemed to be in a more desired, deaggregated form if dissolution in accordance with this test occurs at a pH of less than about 8, preferably less than about 7.5. If dissolution occurs at a pH of greater than about 7.5, more preferably greater than about 8, the peptide is deemed to be in a less desired aggregated form. This helps to ensure the practicality of handling the peptide during subsequent processing and handling.
# [2] = Molar mass by MALS light scattering (apparent MW as measure of aggregation); settings: solution sample taken during acid addition at pH 9.3, re-work of Sample A
# Description: Molecular weight analysis is also a useful technique to assess beta sheet structure in a peptide. Depending upon the technique and equipment used, the molecular weight may be the weight average molecular weight, number average molecular weight, actual molecular weight, or average molecular weight. Assessment of average molecular weight or weight average molecular weight are preferred. A peptide formed from a known sequence and number of amino acids generally has a theoretical molecular weight that is known with a fair degree of certainty. The theoretical molecular weight can be calculated from the theoretical peptide structure. The molecular weight of a peptide sample can be determined through any suitable technique such as light scattering analysis. However, the amount of beta sheet structure of a sample impacts its measured molecular weight. Generally, the measured molecular weight tends to be higher with increasing amounts of beta sheet structure being present.
# As an example, the T-1249 peptide has a theoretical molecular weight of about 5000. The measured, apparent molecular weight of actual samples of the peptide may range from 6000 to 100,000 or even more. […]
# Sample A was a portion of a highly aggregated batch of T-1249 peptide having an average molecular weight of 98,890±6660. The molar mass was determined using MALS light scattering. […]
# [3] = Congo Red colorimetric analysis of beta sheet aggregation; settings: aggregated T-1249 peptide added to initially orange red solution
# Experimental: The following procedure is used to prepare a Congo Red solution suitable for assessing, qualitatively and/or quantitatively, via colorimetric analysis the solubility and formulating characteristics of a peptide sample. A 50 mM solution of sodium phosphate buffer, pH 7.2 is prepared and filtered through a 0.22 μm Polyethersulfone membrane. 25 μM of Congo Red is dissolved in the sodium phosphate buffer with sonication. The mixture also included about 1% by volume ethanol (This can be 95% ethanol or absolute ethanol.) The solution is orange-colored.
# Sonication is used until the peptide is dissolved
# The peptide/Congo Red solution is incubated at ambient temperature for 3-4 hours.
# According to a preferred procedure, a Hewlett Packard 8453 spectrophotometer is used to obtain a blank, reference spectrum of the 50 mM solution of sodium phosphate buffer prepared in Example 6. Using the same instrument, a spectrum for the 25 μM Congo Red solution is measured over a suitable range, e.g., from about 300 nm to about 650 nm. […] If this difference is greater than an empirically determined quality control specification, the sample can be deemed to fail. […]
# [4] = precipitated with 18% by volume acetonitrile
substance,measurement,setting,value
"Acetyl-WQEWEQKITALLEQAQIQQE KNEYELQKLDKWASLWEWF-NH2 (Ac-WQEWEQKITALLEQAQIQQEKNEYELQKLDKWASLWEWF-NH2) [Sample T-1249, ID NO; 20]",dissolution behaviour,[1]; precipitated with 14% by volume acetonitrile,dissolved to some degree at a pH of 6.95 but not completely
same,dissolution time,[1]; [4],1 h
same,final pH at dissolution,[1]; [4],6.69
same,turbidity appearance at dissolution,[1]; [4],very faint turbidity
same,dissolution pH,[1]; precipitated with 20 to 22 volume percent acetonitrile,around 9
same,dissolution behaviour,"[1]; precipitated with no co-solvent, after 14 to 18 hours, pH of 8",dissolved very slowly with high turbidity
same,molar mass by the MALS method,[2],6500
same,colour change of Congo Red solution,[3],deep salmon-pink color

# — patent US20060188874A1, “Methods and compositions for colorimetrically assessing peptide characteristics” (priority 2004, published 2006)
